Our source for the fold decrease in U detection limit of UzcRS (reporter fluorescence in C. crescentus, +UzcY versus -UzcY, FIG. 12) values is US20230332251A1.

In the experiment the target is histidine kinase UzcS (Caulobacter crescentus NA1000). The experiment in a line: cell-based or functional assay.

Some results are limits rather than exact numbers.

Chain of histidine kinase UzcS (Caulobacter crescentus NA1000) (chain, as listed by the source limits assumed, form in doubt): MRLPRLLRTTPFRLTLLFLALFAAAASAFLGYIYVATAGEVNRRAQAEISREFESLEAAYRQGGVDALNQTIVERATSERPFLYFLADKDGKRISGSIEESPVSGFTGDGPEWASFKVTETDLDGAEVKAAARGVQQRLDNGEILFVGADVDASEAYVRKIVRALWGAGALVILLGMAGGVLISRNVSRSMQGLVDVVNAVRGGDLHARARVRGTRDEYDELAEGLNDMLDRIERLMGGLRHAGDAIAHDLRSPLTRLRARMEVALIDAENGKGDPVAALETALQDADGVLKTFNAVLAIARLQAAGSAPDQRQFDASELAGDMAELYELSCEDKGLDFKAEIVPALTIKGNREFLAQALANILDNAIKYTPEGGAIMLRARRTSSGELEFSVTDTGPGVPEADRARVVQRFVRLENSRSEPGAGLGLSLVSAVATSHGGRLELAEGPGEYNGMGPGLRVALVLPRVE

Regarding UzcY (protein encoded by CCNA_03497), the fold decrease in U detection limit of UzcRS (reporter fluorescence in C. crescentus, +UzcY versus -UzcY, FIG. 12) is more than 4 fold.
